Source: US20040234519A1

Columns and labels:
[1] = biological target: T1, PTN secreted by SW13/PTN cells (SW13 human adrenal carcinoma cells stably transfected with PTN cDNA) (human) (UniProt P21246); experiment: ELISA, PTN captured from SW13/PTN supernatant by goat anti-human PTN polyclonal, read at 450 nm
T1 sequence: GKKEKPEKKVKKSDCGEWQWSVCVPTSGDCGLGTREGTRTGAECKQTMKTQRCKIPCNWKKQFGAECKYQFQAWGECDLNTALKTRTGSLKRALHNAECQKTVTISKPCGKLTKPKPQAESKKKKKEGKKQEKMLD

[2] = biological target: T1, PTN secreted by SW13/PTN cells (SW13 human adrenal carcinoma cells stably transfected with PTN cDNA) (human); experiment: cell-based or functional assay
[3] = biological target: T2, recombinant human PTN (R & D Systems, cat# 252-PL) (human) (UniProt P21246); experiment: ELISA, plate coated with rhPTN, hybridoma antibody, read at 450 nm
T2 sequence: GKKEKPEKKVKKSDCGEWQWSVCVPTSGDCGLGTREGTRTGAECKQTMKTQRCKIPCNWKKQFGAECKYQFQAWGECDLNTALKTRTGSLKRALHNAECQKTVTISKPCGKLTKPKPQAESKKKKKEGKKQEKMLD

B1: monoclonal antibody produced by the hybridoma cell line 3B10 (antibody, V domains shown)
VH: QVQLQQSGPELVKPGASVKISCQASGYAFSSHWMNWVKQRPGKGLEWIGRIYPGDGDSLYNGKFKGKATLTADKSSTTVYMQLSSLTSEDSAVYFCARTRAYGPAWFAYWGQGTLVTVSA
VL: DIVMTQSPSSLAMSVGQKVTLSCRSSQSLLDSNNQKNYLAWYQQKPGQSPKLLVYFASIRESGVPDRFIGSGSGTDFTLTITSVQAEDLADYFCQQHYSTPLTFGAGTKLELK
modifications: N-terminus of the heavy chain blocked, most likely modified NH2-terminal glutamine
B1 gave an ELISA OD [1] of 0.139 OD, a Proliferation NIH 3T3 (inhibition) [2] of 50 % inhibition and a Proliferation U87 MG (inhibition) [2] of 50 % inhibition. The Proliferation WI38 (inhibition) [2] was 25 % inhibition, the Soft Agar (inhibition) [2] was 100 % inhibition and the inhibition of SW13 colony formation in soft agar, antibody at 10 ug/ml [2] was less than 95%. The ELISA OD [3] was 0.597 OD.
